In the domain aggregation screens of Martell et al. (2025):

Assay: soluble fraction after stress (log2 fold change); higher = more stays soluble; pooled small domains, quantitative proteomics
Details: stress: pH 4
Summary of the method: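 Values are on a log2 scale, where higher means more of the domain stayed soluble after pH 4 stress. They are fold changes in the soluble amount of each domain from pooled custom libraries, measured by high-throughput quantitative proteomics. The fold change is taken to reflect aggregation propensity.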

Row | Sequence | soluble fraction (log2)
1 | HMDVTDRLARRLQGLRSAQGLSLDALAARSGVSRSNISLIERGQSSPTATVLDKLSAALGVTLAALFEEP | 0.00664
2 | HMHTDDDGITEAFPHLRLLSLGEDILDLLEKSRFIRKLNNELVYYVVDFREQNSIDGRRYHPSIYHNL | -1.31
3 | HMDLQNIQNQLNTEFAKSDTRIIFWFDDKGEYEDEVSELQLGDVKLHILDGLNWFYSKYLLNEA | -0.467
4 | HMNTEVDKVLLRSGEAYFGEVLLRNDELVMMKTQDGARFQFPVSEIKSIEKVSVADALRHINS | 0.162
5 | HMHPEPDPVLFIDGKEYPYDKLSELDETRVQSMTILPKKSAVKKYGDKYANRSIMEITLKKEN | 0.22
6 | HMSDGIPDLRNLNFLSPQEGDYLNESDRVFGVTINGDGQAYPLRIVNAHEMVNDTLGGEPISLM | -0.34
7 | HMILEEIIGKNIARYREAAGLTQATLAEKIGISTAFVSRVERGQKKMKVETLYATAKVLNVSVDALLS | 0.0651
8 | HMFEFFKGIYSISLLKKDGIFFVTFKDENKEAVKHIFPEKPTALELGIKVMEMFEYKERYDGII | -0.226
9 | HMVKPKIILADIGMITETDVTLAKASQAVLIAFNVKPSKEAKKLAEDENIKISTYNIIYEVLDFVKKSMSG | 0.0492
10 | HMISAADLQTYLKGMDYPAGREDLVAHAQRNNAPESVITILQGFSDRTYRSAAEVSEEFGRE | -0.371
11 | HMVMVVDVLKALSNNSSDKFFNTSISNAIKAQEDSQEDFVTLFGIEYEKLSPNNGLAVIFTSQ | -0.816
12 | HMESTLNYSQFLSLVNEDRVAEVVIQGKELYVTDVNRSRFKVYAPPDPELIGLLRQKRVIISAKP | 0.203
13 | HMDFPYISGIEIAAIKNREFIRIETDKAQEIAIALDKSGIPFSARFSDAEMVLTYDGSYKEQVEDIIAKA | -0.808
14 | HMGEDSEPVQVPDVTGQPLWEARRTLSSMGLKVLDDGGSGSVTAQMPSAGATLRNGGQMMLYTYDEALPE | 0.033
15 | HMGRYDWIEQIDDPVLAERLKHLTEDDLELLTRYVFEDATQKELASQYGIGQQSVSKRLKKLKSFLTK | -0.683
16 | HMLTALTDREEEILVLLAHNLSNKEIAKRLNLSVNTVRNHTSHIYEKLNVTSRRKAITLAQSLHLLPP | -0.067
17 | HMKIAEALNLRGDADSYERQEAIWLLEHIVGMSALELKYRGEQDLTEDQLQQYRSGLQRLEQGEPLAYVIG | -0.73
18 | HMDYKSNLQEMVQTTKKSVTYELVKEEGPAHDRTFTMNVIVDGIVLGTGTAKSKKEAEQEAAHQALEKKA | -0.0453
19 | HMGLNVSYRMDGENVVETIIFSGATMIRTVTPTGTMTIKTIENGSTSTAKVNADYSVYKKIYEAQY | -1.03

Row | Sequence | soluble fraction (log2)
20 | HMVWTAGEVVERIRERVGHPATIRELMQVLTIPPEDRHRFRRRIMQLVEAGELIRIRGNRYGLAD | 0.124
21 | HMRQSIHTALQLLTPREEEVLNLLVSGKSNKQVAEHFSLSSKTIERHRSSVMRKLDASSFAQLVRIAALR | -0.404
22 | HMNYIEWKNTFKKYLYLLPIKEEKETLAYFDEQYNKLNPKDLDNVENIFSDPIDKAAFVVAFYLEMEDEIK | -0.802
23 | HMSQSMEVLYTDLTDKDAAAIVEKLEEEKIPYQLEDQGTTILVPPGVKYTTRLKLAAEDLPKG | 0.178
24 | HMRILDFPALKTEFDQLTKDLMAKYPEDGADRVRAIIETVLGPGKKVGALQPHQAELLAEVNTSLKANL | -0.0969
25 | HMGALARLLASVEQELGVTRDRMTRTQKQEAVTLLNEWGAFTLRKSVEDVAEALGVSRFTVYNYLERAEA | -0.866
26 | HMSSPDMSLLYSELDVKDSGQIVTILEQRNIPYEVRNNGSQIYIPSNNVQRIRLSLAQEGLPSG | 0.152
27 | HMTPPLSKIRNMTPDQQRSSVIEARKKGYNLLQLEGLAKAQGATPADLLVLRNAWAQSEFDQKR | 0.331
28 | HMNSVSIAPEMLNWVIAHIQMNSLPKQIVEHLTAWISGQKEPTFNQIEKVSRATGIPLGYFFLEQPPKE | -1.02
29 | HMEDSAKRHQIMDGARRVFMDLGFDGASMNEIARAAGVSKGTLYVYFTDKNRLFEAIVEQESL | -1.15
30 | HMQFHQDNYALEFIRDLQPVDGAIILSRFKQFDLVELEKAKKIKFSDEHMAWTLYDYDIKKIN | -1.82
31 | HMKTSTGSAMYLTLDLAEKYAGQAFTLVHKKADGTFEYLYATADVDGKVKFGPVYELSPFMLVKGQL | -0.674
32 | HMDEDTWKLYKRAYKKYYARYMKGNMSEAAFKAWGEQAAADRDAAIEQLRATTDAALSASIIQQLKEKLNR | 0.22
33 | HMQELVPGKVFEGTVTEMKNGQVTLGLSDGKTISARMEQGVSLAKGQPMLFEVKSNTGEQIAIRPVVL | 0.105
34 | HMSERIITFGEATREAMLEEMRADERVFVYGEDIAKQGGIFGQFAGMKDEFPERVLDTPISETALVGAG | -0.679
35 | HMEGSLQEDKVKEYQDRFKEELSNDLNTANSITVLYDLIKDDTLNGTTKRYLIEDFDKILSLDLIKE | -0.854
36 | HMRMSRSARLFDLLHILRSHRRAVSGQALAQQLGISIRTLYRDIASLQAQGAKIEGEPGVGYMLKP | -0.0136
37 | HMGNNSIDIKDVIYNLVEISQLQAFDIVKHFKTWENLVNKPDELDTVIDGDSDIVDRIKYKIKSLS | -0.568
